Results on 21 variants are retold here after the RNAGym collection of RNA variant scans (doi:10.7554/elife.90254).

First the molecules themselves.
B1: OR4K15 (parent)
chain: GUUAACGGUCAUAGGCCAUGGAAACUAGGAGCACCAUUUCGCUGCCAGUGAAGAAAUGAACAAAGAAAAUCUGGGCCAGGCAGGCAUCAAAAGAAAUAGUCUUGCGCUCAACCAGAAAGUCUGUAAUCAUUUUAAGGGUA

The variants in the series derive from B1. In words: self-cleavage, relative activity (ratio to wild type); higher = more cleavage; in vitro, sequencing; the parent is a self-cleaving ribozyme.
Consider GUUAACGGUCAUAGGCCACGGAAACUAGGAGCACCAUUUCGCUGCCAGUGAAGAAAUGAACAAAGAAAAUCUGGGCCAGGCAGGCAUCAAAAGAAAUAGUCUUGCGCUCAACCAGAAAGUCUGUAAUCAUCUUAAGGGUA, for which the self-cleavage was found to be 1.14.
GUUAACGGUCAUAGGCCACGGAAACUAGGAGCACCAUAUCGCUGCCAGUGAAGAAAUGAACAAAGAAAAUCUGGGCCAGGCAGGCAUCAAAAGAAAUAGUCUUGCGCUCAACCAGAAAGUCUGUAAUCAUUUUAAGGGUA: the self-cleavage was 1.46.
The figure for GUUAACGGUCAUAGGCCACGGAAACUAGGAGCACCAUUUCGCUGCCAGUGAAGAAAUGAACAAAGAAAAUCUGGGCCAGGCAGGCAUCAAAAGAAAUAGUCUUGCGCUCAACCAGAAAGUCUGUAAUCAUUAUAAGGGUA is 1.89; for GUUAACGGUCAUAGGCCACGGAAACUAGGAGCACCAUUUCGCUGCCAGUGAAGAAAUGAACAAAGAAAAUCUGGGCCAGGCAGGCAACAAAAGAAAUAGUCUUGCGCUCAACCAGAAAGUCUGUAAUCAUUUUAAGGGUA it is 1.48; for GUUAACGGUCAUAGGCCACGGAAACUAGGAGCACCAUUUCGCUGCCAGUGAAGAAAUGAACAAAGAAAAUCUGGGCCAGGCAGGCACCAAAAGAAAUAGUCUUGCGCUCAACCAGAAAGUCUGUAAUCAUUUUAAGGGUA it is 1.52.
For GUUAACGGUCAUAGGCCACGGAAACUAGGAGCACCAUUUCGCUGCCAGUGAAGAAAUGAACAAAGAAAAUCAGGGCCAGGCAGGCAUCAAAAGAAAUAGUCUUGCGCUCAACCAGAAAGUCUGUAAUCAUUUUAAGGGUA the value was 0.33.
For the variant GUUAACGGUCAUAGGCCACGGAAACUAGGAGCACCAUUUCGCUGCCAGUGAAGAAAUGAACAAAGAAAAUCUGGGCCAGGCAGGCAUCAAAAGAAAUAGUCAUGCGCUCAACCAGAAAGUCUGUAAUCAUUUUAAGGGUA, the self-cleavage was determined as 1.29.
GUUAACGGUCAUAGGCCACGGAAACUAGGAGCACCAUUUCGCUGCCAGUGAAGAAAUGAACAAAGAAAAUCUGGGCCAGGCAGGCAUCAAAAGAAAUAGUCUUGCGCUCAACCAGAAAGUCUGUAAUCACUUUAAGGGUA: the self-cleavage came to 0.31.
Consider GUUAACGGUCAUAGGCCACGGAAACUAGGAGCACCAUUUCGCUGCCAGUGAAGAAAUGAACAAAGAAAAUCUGGGCCAGGCAGGCAUCAAAAGAAAUAGUCUUGCGCUCAACCAGAAAGUCUGUAAACAUUUUAAGGGUA, for which the self-cleavage was 2.17.
Take GUUAACGGUCAUAGGCCACGGAAACUAGGAGCACCAUUUCGCUGCCAGUGAAGAAAUGAACAAAGAAAAUCUGGGCCAGGCAGGCAUCAAAAGAAAUAGUCUUGCGCUCAACCAGAAAGUCUGUAACCAUUUUAAGGGUA: the self-cleavage amounted to 0.95.
With GUUAACGGUCAUAGGCCACGGAAACUAGGAGCACCAUUUCGCUGCCAGUGAAGAAAUGAACAAAGAAAAUCUGGGCCAGGCAGGCAUCAAAAGAAAUAGUCUUGCGCUCAACCAGAAAGUCUGUAAUCAUUUUAAGGGCA, the self-cleavage was 1.58.
Regarding GUUAACGGUCAUAGGCCACGGAAACUAGGAGCACCAUUUCGCUGCCAGUGAAGAAAUGAACAAAGAAAAUCUGGGCCAGGCAGGCAUCAAAAGAAAUAGUCUUGCGCUCAACCAGAAAGUCUGUAAUCAUUUUAAAGGUA, the self-cleavage came to 1.38.
For GUUAACGGUCAUAGGCCACGGAAACUAGGAGCACCAUUCCGCUGCCAGUGAAGAAAUGAACAAAGAAAAUCUGGGCCAGGCAGGCAUCAAAAGAAAUAGUCUUGCGCUCAACCAGAAAGUCUGUAAUCAUUUUAAGGGUA the value was 1.7.
GUUAACGGUCAUAGGCCACGGAAACUAGGAGCACCAAUUCGCUGCCAGUGAAGAAAUGAACAAAGAAAAUCUGGGCCAGGCAGGCAUCAAAAGAAAUAGUCUUGCGCUCAACCAGAAAGUCUGUAAUCAUUUUAAGGGUA: the self-cleavage worked out at 0.9.
For GUUAACGGUCAUAGGCCACGGAAACUAGGAGCACCAUUUCGCUGCCAGUGAAGAAAUGAACAAAGAAAAUCUGGGCCAGGCAGGCAUCAAAAGAAAUAGUCUUGCGCUCAACCAGAAAGUCCGUAAUCAUUUUAAGGGUA the value was 0.46; for GUUAACGGUCAUAGGCCACGGAAACUAGGAGCACCAUUUCGCUGCCAGUGAAGAAAUGAACAAAGAAAAUCUGGGCCAGGCAGGCAUCAAAAGAAAUAGUCUUGCGCUCAACCAGAAAGUCAGUAAUCAUUUUAAGGGUA, 0.65; for GUUAACGGUCAUAGGCCACGGAAACUAGGAGCACCAUUUCGCCGCCAGUGAAGAAAUGAACAAAGAAAAUCUGGGCCAGGCAGGCAUCAAAAGAAAUAGUCUUGCGCUCAACCAGAAAGUCUGUAAUCAUUUUAAGGGUA, 0.54.
On to GUUAACGGUCAUAGGCCACGGAAACUAGGAGCACCAUUUCGCUGCCAGUGAAGAAACGAACAAAGAAAAUCUGGGCCAGGCAGGCAUCAAAAGAAAUAGUCUUGCGCUCAACCAGAAAGUCUGUAAUCAUUUUAAGGGUA, for which the self-cleavage is 1.37.
As for GUUAACGGUCAUAGGCCACGGAAACUAGGAGCACCAUUUCGCUGCCAGUGAAGAAAAGAACAAAGAAAAUCUGGGCCAGGCAGGCAUCAAAAGAAAUAGUCUUGCGCUCAACCAGAAAGUCUGUAAUCAUUUUAAGGGUA, the self-cleavage is 1.21.
As for GUUAACGGUCAUAGGCCACGGAAACUAGGAGCACCAUUUCGCUGCCAGUGAAGAAAUGAACAAAGAAAAUCUGGGCCAGGCAGGCAUCAAAAGAAAUAGACUUGCGCUCAACCAGAAAGUCUGUAAUCAUUUUAAGGGUA, the self-cleavage was found to be 0.71.
For the variant GUUAACGGUCAUAGGCCACGGAAACUAGGAGCACCAUUUCGCUGCCAGUGAAGAAAUGAACAAAGAAAAUCUGGGCCAGGCAGGCAUCAAAAGAAAUAGCCUUGCGCUCAACCAGAAAGUCUGUAAUCAUUUUAAGGGUA, the self-cleavage amounted to 1.97.
